According to patent US20090298197, “SERS-BASED METHODS FOR DETECTION OF BIOAGENTS” (OXONICA MATERIALS INC., published 2009):

What was measured:
ovalbumin = ovalbumin (UniProt P01012 P01012:2-386); assay: negative control, little signal; nanowire fluorescence beacon; details: label: TAMRA 3'; no hairpin
Experimental: Probe assembly was performed as for standard molecular beacons. The assay was performed by diluted the thrombin protein with Tris-HCl buffer to attain desired concentration. Then 50 μl thrombin protein solution was mixed with 3 μl nanowire assembled aptamer probe in a microfuge tube and incubated for 30 min, with rotation at room temperature. The contents were centrifuged, washed with 0.1% Tween-20/PBS once and fluorescence images acquired using fluorescence microscope described above.
As expected no fluorescence was observed, due to the fluorescence quenching of the TAMRA by the nanowire. However, when the thrombin protein was added to the reaction by incubating 10 μg/ml thrombin with 3 μl nanowire-Apt1 assembled probes for 30 min, fluorescence was restored. An investigation into the effect of the hairpin in the beacons was carried out. […] This sequence was therefore used for subsequent experiments. […] When this experiment was repeated in 50% serum, the detection limit was again approximately 50 nM (FIG. 15B). These are very encouraging results. Finally, it is important to understand the specificity of the assay, in addition to the sensitivity. THR Apt 3 assembled nanowires were incubated with a pair of homologous proteins, α Thrombin and β Thrombin, and with ovalbumin as a negative control, and a blank (labeled control). […]

alpha-thrombin [1] = molecular target: T1, alpha-thrombin (UniProt P00734;P00734 P00734:328-363,P00734:364-622); assay: nanowire fluorescence beacon; highest signal to noise; thrombin detected at about 50 nM in buffer and in 50% serum (detection limit, not Kd); greatest signal wi
alpha-thrombin [2] = molecular target: T1, alpha-thrombin; assay: fluorescence restored on nanowire beacon with 10 ug/ml thrombin (form not specified), Tris-HCl, 30 min, room temperature

Chain of ovalbumin (P01012 2-386, one chain of several): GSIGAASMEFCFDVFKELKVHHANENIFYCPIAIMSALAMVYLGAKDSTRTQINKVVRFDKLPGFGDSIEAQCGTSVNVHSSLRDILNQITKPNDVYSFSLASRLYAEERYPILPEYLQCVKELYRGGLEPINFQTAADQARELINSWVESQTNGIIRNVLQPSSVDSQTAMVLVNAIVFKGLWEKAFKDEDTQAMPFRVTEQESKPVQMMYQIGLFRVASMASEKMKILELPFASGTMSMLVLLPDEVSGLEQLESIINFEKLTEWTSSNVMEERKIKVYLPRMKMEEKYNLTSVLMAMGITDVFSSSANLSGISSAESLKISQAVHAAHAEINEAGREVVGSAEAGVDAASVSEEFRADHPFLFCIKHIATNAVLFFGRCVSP

Does TGGTTGGTGTGGTTGG (ssDNA, 5' thiol-(CH2)6, 3' (CH2)7-TAMRA, assembled on Au/Ag nanowires) [THR Apt3] bind (ovalbumin)?
Result: no binding

Does TGGTTGGTGTGGTTGG (ssDNA, 5' thiol-(CH2)6, 3' (CH2)7-TAMRA, assembled on Au/Ag nanowires) [THR Apt3] bind (alpha-thrombin [1])?
Result: binds

Does CCAACGGTTGGTGTGGTTGG (ssDNA, 5' thiol-(CH2)6, 3' (CH2)7-TAMRA, assembled on Au/Ag nanowires) [THR Apt1] bind (alpha-thrombin [2])?
Result: binds
